These results are taken from US5786145A, “Oligonucleotide competitors for binding of HIV RRE to REV protein and assays for screening inhibitors of this binding” (Medical Research Council, priority 1995, dated 1998).

Where a chain is given by its changes, count along the chain named.

In series [1] the test system is rev protein. The series can be described thus: Competition filter binding against 32P-labelled R7 (FIGS. 13, 17). The settings on record: 1.5 nM labelled R7, 24 nM rev, 0-60 nM competitor. More on the design: species or system HIV-1. How it is done: In these experiments, uniformly ^32 P-labelled R7 (1.5 nM) was competed against 0-60 nM unlabelled competitor RNA in the presence of 24 nM rev protein.
The mixtures for competition binding (0.5 ml) included 1.5 nM ^32 P-labelled R7 (ca. 20,000 cpm), 24 nM rev protein, 1.5 ug/ml calf thymus DNA, 0.67 ug/ml yeast rRNA, varying concentrations (0-60 nM) of unlabelled competitor RNA and 80 units/ml RNasin in TK buffer (50 mM Tris-HCl (pH7.9) and 20 mM KCl). Binding was allowed to take place for more than 15 min on ice, and each mixture was passed through a Millipore GS filter (a 2.5 cm disk with a pore size of 0.22 um) prewashed twice with 0.6 ml of ice-cold TK buffer. The filter was washed with 0.6 ml of cold TK buffer and dried. The radioactivity retained on the filter was counted by liquid scintillation, and the results were plotted on a graph (FIG. 13).

For series [2], the system named is rev protein. The series can be described thus: Scatchard analysis of RBC6 binding to rev (FIG. 14). The settings on record: 0.6 nM labelled RBC6, 0-150 nM unlabelled RBC6, 24 nM rev; read-out: Kd (binding constant) from Scatchard plot. Also noted: species or system HIV-1. How it is done: (§1) Binding experiments were carried out using labelled RBC6 (SEQ ID NO:20 and SEQ ID NO:21) duplex formed frm the 5'-^32 P-labelled 14-mer oligoribonucleotide annealed to the 15 mer (0.6 nM) and 0-150 nM unlabelled RBC6 in the presence of 24 nM rev protein.
The mixtures for binding (0.5 ml) included 0.6 nM ^32 P-labelled RBC6 (SEQ ID NO:20 and SEQ ID NO:21) (ca. 20,000 cpm), 24 nM rev protein, varying concentrations (0-150 nM) of unlabelled RBC6 (SEQ ID NO:20 and SEQ ID NO:21) and 80 units/ml RNasin in TK buffer. The filter binding assays were carried out as described above, and a Scatchard plot (FIG. 14) was obtained from the results.

Series [3] deals with rev protein. The series can be described thus: Saturation binding of rev protein to labelled RBC6 (FIG. 15). Also noted: species or system HIV-1. The settings on record: 1.5 nM labelled RBC6, 0-50 nM rev; read-out: Kd from saturation binding, Scatchard plot. How it is done:
as §1
The mixtures for binding (0.5 ml) included 1.5 nM ^32 P-labelled RBC6 (SEQ ID NO:20 and SEQ ID NO:21) (ca. 20,000 cpm), varying concentrations (0-50 nM) of rev protein and 80 units/ml RNasin in TK buffer. The filter binding assays were carried out as described above, and the results were plotted on a graph (FIG. 15).

Series [4] has as its target T1, HIV-1 Rev (Human immunodeficiency virus 1, UniProt P04618 P04618:1-116). The series can be described thus: filter; 50 mM KCl, 4 C; 35% bound at 10 nM rev. To be noted: tags: none stated; heparin-Sepharose and Superose 6 purified; chain copies: oligomer (tetramer likely; about 4 per RBC6, 6-8 per full-length RRE at 50 mM KCl) stated; label: 32P uniform; stem-loop with altered bubble.

Series [5] addresses T1, HIV-1 Rev. The series can be described thus: competition; D1/2 vs labelled RRE RNA, 17 nM rev. The settings on record: tags: none stated, heparin-Sepharose and Superose 6 purified, chain copies: oligomer (tetramer likely; about 4 per RBC6, 6-8 per full-length RRE at 50 mM KCl) stated, label: 32P uniform.
Series [6] deals with T1, HIV-1 Rev. The series can be described thus: competition; competes with same affinity as RBC6. To be noted: tags: none stated; heparin-Sepharose and Superose 6 purified; chain copies: oligomer (tetramer likely; about 4 per RBC6, 6-8 per full-length RRE at 50 mM KCl) stated; RNA three-way junction stabilising bubble (all strands RNA).
Series [7] addresses T1, HIV-1 Rev. The series can be described thus: filter; same affinity as full-length RRE. To be noted: tags: none stated; heparin-Sepharose and Superose 6 purified; chain copies: oligomer (tetramer likely; about 4 per RBC6, 6-8 per full-length RRE at 50 mM KCl) stated; label: 32P uniform; stem-loop with purine-rich bubble.
The target in series [8] is T1, HIV-1 Rev. The series can be described thus: filter; shortest T7 transcript with full affinity. The settings on record: tags: none stated; heparin-Sepharose and Superose 6 purified; chain copies: oligomer (tetramer likely; about 4 per RBC6, 6-8 per full-length RRE at 50 mM KCl) stated; label: 32P uniform; stem-loop with purine-rich bubble.
For series [9], the target named is T1, HIV-1 Rev. The series can be described thus: filter; 50 mM KCl, 4 C; 21% bound at 10 nM rev. The settings on record: tags: none stated; heparin-Sepharose and Superose 6 purified; chain copies: oligomer (tetramer likely; about 4 per RBC6, 6-8 per full-length RRE at 50 mM KCl) stated; label: 32P uniform.
Series [10] deals with T1, HIV-1 Rev. The series can be described thus: filter; 50 mM KCl, 4 C; 15% bound at 10 nM rev. To be noted: tags: none stated; heparin-Sepharose and Superose 6 purified; chain copies: oligomer (tetramer likely; about 4 per RBC6, 6-8 per full-length RRE at 50 mM KCl) stated; label: 32P uniform.
The target of series [11] is T1, HIV-1 Rev. The series can be described thus: filter; 50 mM KCl, 4 C; 17% bound at 10 nM rev. To be noted: tags: none stated; heparin-Sepharose and Superose 6 purified; chain copies: oligomer (tetramer likely; about 4 per RBC6, 6-8 per full-length RRE at 50 mM KCl) stated; label: 32P uniform.
In series [12] the target is T1, HIV-1 Rev. The series can be described thus: filter; 50 mM KCl, 4 C; 20% bound at 10 nM rev. To be noted: tags: none stated; heparin-Sepharose and Superose 6 purified; chain copies: oligomer (tetramer likely; about 4 per RBC6, 6-8 per full-length RRE at 50 mM KCl) stated; label: 32P uniform.
The target in series [13] is T1, HIV-1 Rev. The series can be described thus: filter; 50 mM KCl, 4 C; 40% bound at 10 nM rev. The settings on record: tags: none stated, heparin-Sepharose and Superose 6 purified, chain copies: oligomer (tetramer likely; about 4 per RBC6, 6-8 per full-length RRE at 50 mM KCl) stated, label: 32P uniform.
The target of series [14] is T1, HIV-1 Rev. The series can be described thus: filter; bubble not formed. To be noted: tags: none stated; heparin-Sepharose and Superose 6 purified; chain copies: oligomer (tetramer likely; about 4 per RBC6, 6-8 per full-length RRE at 50 mM KCl) stated; label: 32P uniform.
Where [15] appears, read: stem-loop with purine-rich bubble on 9-bp stem.

In the case of “RBC6: chemically synthesized RNA duplex (14-mer annealed to 15-mer), bubble with six base pairs on each side (chain 1 CGUGUGGGCGCAGC; chain 2 GCUGCGGUACACACG; RNA, backbone not given here)”, the “competition for rev binding against labelled R7, result in words” value in the series with rev protein [1] is reported as “competed about half as well as R7”. Besides, the Kd in the series with rev protein [2] is approximately 3 nM; in the series on rev protein [3], 3.8 nM.

B1: R35 (dG35) (ssRNA)
RNA: GGGAGACCGGAAUUCUGGCGCAGUGUCAUUGACGCUGCGGUACAGAAUUCCGGCA
Turning to B1, in the series with HIV-1 Rev [4], the Kd was found to be 4 nM. The molecule also came in with an IC50 in the series with HIV-1 Rev [5] (stem-loop with altered bubble) of 16 nM.

B2: TWJ-U (structured_DNA)
DNA 1: GCACUAUGGGCGCAGC
DNA 2: GCUGCGGUACAGGCCAGA
DNA 3: UCUGGUAUAGUGC
As for B2, in the series with HIV-1 Rev [6], the binding result was “binds”.

B3: RRE fragment 1-96 (ssRNA)
RNA: GGGAGACCGGAAUUCCCUUGGGUUCUUGGGAGCAGCAGGAAGCACUAUGGGCGCAGUGUCAUUGACGCUGACGGUACAGGCCAGACAAUUAUUGUCUGGUAUAGUGCAACA
For B3, the binding result in the series with HIV-1 Rev [7] is on record as “binds”.

B4: RRE fragment 26-92 (ssRNA)
RNA: GGGAGACCGGAAUUCAGCACUAUGGGCGCAGUGUCAUUGACGCUGACGGUACAGGCCAGACAAUUAUUGUCUGGUAUAGUGCA
Turning to B4, in the series with HIV-1 Rev [7], the binding result is recorded as “binds”. In the series with HIV-1 Rev [8], GGGAGACCGGAAUUCUGGGCGCAGUGUCAUUGACGCUGACGGUACAGGCA (ssRNA) [R19 (RRE 33-66)] registered a Kd of 1.73 nM.

B5: R55 (ssRNA)
RNA: GGGAGACCGGAAUUCUAGGCGCAGUGUCAUUGACGCUGCGGUAUAGAAUUCCGGCA
modifications: [-]
In the series with HIV-1 Rev [9], B5 returned a Kd of 4 nM.

B6: R39 (ssRNA)
RNA: B5 RNA with U16A, A17G, U44C, A45U
modifications: [-]
In turn, B6 showed a Kd in the series with HIV-1 Rev [10] of 8 nM.

B7: R54 (ssRNA)
RNA: B5 RNA with U16C, A17G, U44C, A45G
modifications: [-]
Turning to B7, in the series with HIV-1 Rev [11], the Kd was 6 nM.

B8: R50 (ssRNA)
RNA: B5 RNA with A17G, G19A, U44C
modifications: [-]
On to B8, for which the Kd in the series with HIV-1 Rev [12] amounted to 5 nM.

B9: R33 (ssRNA)
RNA: B5 RNA with A17G, U44C
As to B9, in the series with HIV-1 Rev [13] (setting [15]), the Kd came out at 3 nM. In the series with HIV-1 Rev [5] (setting [15]), this molecule returned an IC50 of 8 nM.

B10: R57 (ssRNA)
RNA: B5 RNA with A17G, G21A, C39U, U44C
modifications: [-]
For the molecule B10, the Kd with HIV-1 Rev [13] turned out to be 3 nM.

B11: RRE fragment 26-72 (ssRNA)
RNA: GGGAGACCGGAAUUCAGCACUAGGGCGCAGUGUCAUUGACGCUGAGGGUACAGGCCAGACAAUUAUA
Regarding B11, in the series with HIV-1 Rev [14], the binding result was “no binding”.

Broadly, the IC50 is the concentration that gives 50% inhibition. Read a high IC50 as weaker potency.
